1 substance from PMC13438699 can be followed below.

The target in this test is A/Solomon Islands/3/2006 (H1N1) HA (influenza A virus A/Solomon Islands/3/2006 (H1N1)). The test can be described thus: cryo-EM structure.

One may read the stoichiometry N as a count of units in the complex or per binding partner. Substance “A/Solomon Islands/3/2006 (H1N1) HA (natural protein)” displayed a stoichiometry N of 3.
